Source: paper PMC9237115 (2022)
Where two headings read alike, the source gives them in different places.

Key:
[1] = biological target: Cdk2-phosphorylated Tau (PTau^Cdk2) (human, UniProt P10636-8 1-441, phosphorylated in vitro by Cdk2/CyA2, heterogeneously; LC-MS/MS confirmed phosphorylation of the AT8 (S202 and T205), AT180 (T231 and S235) and PHF1 (S396 and S404) epitopes; full list of sites in …); test: Cdk2-phosphorylated Tau
[2] = biological target: T1, Full-length human Tau (MAPT) (human, UniProt P10636-8 1-441); test: previously reported (ref 2)
T1 sequence (P10636 other isoform, or with tags, fused parts or gaps): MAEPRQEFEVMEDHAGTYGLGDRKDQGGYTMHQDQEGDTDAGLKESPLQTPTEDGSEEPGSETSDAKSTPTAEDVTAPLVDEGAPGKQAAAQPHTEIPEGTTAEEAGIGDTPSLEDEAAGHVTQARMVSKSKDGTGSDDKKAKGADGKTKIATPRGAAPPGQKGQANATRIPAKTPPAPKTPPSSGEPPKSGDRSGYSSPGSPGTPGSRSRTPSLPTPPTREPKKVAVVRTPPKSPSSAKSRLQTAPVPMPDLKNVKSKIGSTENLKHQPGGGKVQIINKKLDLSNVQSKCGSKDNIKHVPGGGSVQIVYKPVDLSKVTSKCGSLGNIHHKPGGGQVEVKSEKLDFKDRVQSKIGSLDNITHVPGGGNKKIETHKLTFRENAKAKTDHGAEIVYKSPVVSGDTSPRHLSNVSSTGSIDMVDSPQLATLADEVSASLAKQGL

[3] = biological target: T1, Full-length human Tau (MAPT)

Cdk2-phosphorylated Tau (PTau^Cdk2), sequence (P10636 other isoform, or with tags, fused parts or gaps): as above

Kd [1]: 27.9 µM
Kd [2]: 4.8 µM
Kd [3]: 4.1 µM
B1: Hsp90 (HSP90AB1) (natural protein)
chain: not shown
